Measured values from US20180224449A1.
Ends that are not written are not given here.

Tests used:
[1] = target: OprF outer membrane protein on P. stutzeri cells (P. stutzeri); experiment: fluorometry at 525 nm of 1x10^9 P. stutzeri cells labeled with peptide-QD525 conjugate
[2] = target: Opr86 outer membrane protein on P. stutzeri cells (P. stutzeri); experiment: as above
[3] = target: Opr86 outer membrane protein on P. stutzeri cells (P. stutzeri); experiment: fluorometry of cells recovered from spiked 1 L Jet A fuel and labeled with 1.5 uM peptide-QD545, at the LOD of 5 x 10^5 CFU
[4] = target: Opr86 outer membrane protein on A. venetianus cells (A. venetianus); experiment: as above

Work on NMTNPPP (conjugated to a quantum dot (QD525)) [OBP6 peptide-quantum dot conjugate] yielded a Fluorescence (RFU) [1] of 2080 RFU.

PRIRKSH (also: conjugated to quantum dot) [OPP1 peptide-quantum dot conjugate] gave a Fluorescence (RFU) [2] of 12300 RFU, a Fluorescence (RFU) [3] of 820 RFU and a Fluorescence (RFU) [4] of 773 RFU.

For QMLLRLP (conjugated to a quantum dot (QD525)) [OBP9 peptide-quantum dot conjugate], the Fluorescence (RFU) [1] was 3340 RFU.

For MHNLNLL (conjugated to a quantum dot (QD525)) [OPP2 peptide-quantum dot conjugate], the Fluorescence (RFU) [2] was 1850 RFU.

RKKSRIR (conjugated to a quantum dot (QD525)) [OPP6 peptide-quantum dot conjugate] showed a Fluorescence (RFU) [2] of 4130 RFU.

With LPSTIHR (conjugated to a quantum dot (QD525)) [OPP3 peptide-quantum dot conjugate] the Fluorescence (RFU) [2] was 2250 RFU.

RRSNSQL (conjugated to a quantum dot (QD525)) [OBP4 peptide-quantum dot conjugate] was tested, and the Fluorescence (RFU) [1] was 4520 RFU.

With LRPLMNR (conjugated to a quantum dot (QD525)) [OPP4 peptide-quantum dot conjugate] the Fluorescence (RFU) [2] was 1380 RFU.

With IITMKRR (conjugated to a quantum dot (QD525)) [OPP5 peptide-quantum dot conjugate] the Fluorescence (RFU) [2] was 4410 RFU.

For QITLRST (conjugated to a quantum dot (QD525)) [OBP7 peptide-quantum dot conjugate], the Fluorescence (RFU) [1] was 2620 RFU.
